Experiment [1] addresses T1, Full-length murine NT5E (recombinant) (murine, UniProt Q61503 29-552).
T1 construct: also called mNT5E
T1 sequence: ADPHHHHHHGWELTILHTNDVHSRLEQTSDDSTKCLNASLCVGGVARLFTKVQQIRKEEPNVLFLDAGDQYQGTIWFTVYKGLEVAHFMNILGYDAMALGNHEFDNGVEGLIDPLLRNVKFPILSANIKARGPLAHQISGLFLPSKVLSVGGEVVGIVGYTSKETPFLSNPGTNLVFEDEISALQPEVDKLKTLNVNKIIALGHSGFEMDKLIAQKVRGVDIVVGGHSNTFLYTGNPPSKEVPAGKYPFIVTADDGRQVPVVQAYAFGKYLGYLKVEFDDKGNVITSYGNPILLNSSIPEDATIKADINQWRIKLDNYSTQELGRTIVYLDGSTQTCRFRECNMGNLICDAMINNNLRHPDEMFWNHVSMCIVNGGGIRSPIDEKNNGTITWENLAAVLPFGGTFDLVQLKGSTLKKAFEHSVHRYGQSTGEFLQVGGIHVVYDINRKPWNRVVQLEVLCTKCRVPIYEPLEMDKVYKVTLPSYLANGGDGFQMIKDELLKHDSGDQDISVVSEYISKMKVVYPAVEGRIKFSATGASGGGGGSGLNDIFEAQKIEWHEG
In words: SPR, His-captured NT5E, 1 mM ATP; SPR, 1 mM ATP. The method, then: (§1) All SPR experiments were performed at 25° C. using MASS-1 (Bruker) instrument. hNT5E, mNT5E and cNT5E were immobilized onto a nitrilotriacetic acid (NTA) sensor chip via His-tag. For kinetic experiments, after ligand immobilization, 2-fold serial dilutions of the Fabs were injected. After double-reference subtraction data were analyzed with BiaEvaluation (GE Healthcare) or Sierra Analyser (Bruker) software. The experiments were carried in buffers in presence and absence of 1 mM ATP to compare the kinetic parameters of the Fabs binding to closed and open form of NT5E.

In experiment [2] the target is T2, Full-length human NT5E (recombinant, in-house) (human, UniProt P21589 27-549).
T2 construct: also called hNT5E; hNT5EWT
T2 sequence: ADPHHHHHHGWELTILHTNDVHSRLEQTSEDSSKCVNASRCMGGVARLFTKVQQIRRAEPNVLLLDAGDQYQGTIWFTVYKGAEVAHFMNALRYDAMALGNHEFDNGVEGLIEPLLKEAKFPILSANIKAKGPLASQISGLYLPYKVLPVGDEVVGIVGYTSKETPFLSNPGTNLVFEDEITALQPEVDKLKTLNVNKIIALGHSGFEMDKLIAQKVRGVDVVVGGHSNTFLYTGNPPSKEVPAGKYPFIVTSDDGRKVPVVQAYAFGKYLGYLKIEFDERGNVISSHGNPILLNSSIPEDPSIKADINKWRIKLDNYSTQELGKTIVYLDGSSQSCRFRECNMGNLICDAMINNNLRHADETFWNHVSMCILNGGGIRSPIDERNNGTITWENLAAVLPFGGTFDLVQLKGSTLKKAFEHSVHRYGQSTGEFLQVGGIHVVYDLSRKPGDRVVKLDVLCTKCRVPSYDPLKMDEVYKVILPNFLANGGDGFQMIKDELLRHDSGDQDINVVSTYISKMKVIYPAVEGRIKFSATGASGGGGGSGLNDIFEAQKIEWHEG
In words: SPR, His-captured NT5E, no ATP. The method, then:
as §1
On the technique in general: SPR reads the build-up and loss of mass on a sensor chip optically.

Experiment [3] addresses T3, murine NT5E expressed on 4T1 cells (murine, UniProt Q61503 29-551).
T3 construct: whole, on cells; also called mouse NT5E-expressing 4T1 cells
T3 sequence (looked up): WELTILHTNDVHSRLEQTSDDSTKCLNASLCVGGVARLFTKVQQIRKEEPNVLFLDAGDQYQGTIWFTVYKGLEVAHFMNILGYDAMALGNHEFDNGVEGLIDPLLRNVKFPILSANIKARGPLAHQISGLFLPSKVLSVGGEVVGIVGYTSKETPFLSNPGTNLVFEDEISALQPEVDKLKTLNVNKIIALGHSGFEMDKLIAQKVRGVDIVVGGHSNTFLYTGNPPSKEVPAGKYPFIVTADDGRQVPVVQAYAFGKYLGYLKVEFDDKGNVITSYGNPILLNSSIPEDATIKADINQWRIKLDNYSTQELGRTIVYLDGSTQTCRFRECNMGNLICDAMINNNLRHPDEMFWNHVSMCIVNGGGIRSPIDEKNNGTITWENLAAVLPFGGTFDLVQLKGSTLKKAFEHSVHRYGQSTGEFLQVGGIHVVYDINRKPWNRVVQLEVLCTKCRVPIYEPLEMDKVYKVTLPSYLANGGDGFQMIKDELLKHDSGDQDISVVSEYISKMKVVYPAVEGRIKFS
In words: flow cytometry on 4T1 cells, 1 mM ATP; +ATP (1 mM), 4T1 cells. The method, then: Human MDA-MB-231 cells and murine 4T1 cells were grown to 90% confluency, detached with 5 mM EDTA for 15 min at 37° C. and then resuspended in 37° C. lx PBS (#10010031, Gibco) supplemented with 1% FBS and 1OpM ZnCl2. Separate working buffers (WB) of PBS and 1% FBS with or without fixed nucleotide concentrations were used throughout all washing steps to maintain constant condition. In 96-well plates (#3799, Costar), 0.2×10⁶ cells were added per well. The plates were spun at 500×g for 5 min and the supernatant was removed. Anti-NT5E antibodies were diluted to the desired concentration in 100 μL WB, added to the cells and the plates were incubated for 20 min at 37° C. Plates were spun and cells were washed twice with WB then spun a second time. Cells were stained with 100 μL of secondary antibody (Alexa Fluor 647 AffiniPure Goat Anti-Human IgG, F(ab′)2 fragment specific, #109-605-006, Jackson, 1:200) dilution and plates were incubated for 20 min at 37° C. Cells were washed twice with WB then fixed on ice with WB supplemented with 0.5% PFA. Fixing solution was removed by centrifugation and cells were resuspended in cold 1× PBS. Samples were analyzed by flow cytometry using CytoFLEX (Beckman Coulter) and mean fluorescence intensity (MFI) data was extracted using FlowJo software. Resulting binding data was plotted using OriginLab.
(In general: Flow cytometry measures light scatter and fluorescence of single cells or particles in a stream.)

The term Kd denotes the constant that tells how readily two partners part at equilibrium. For orientation: koff means the first-order rate constant of dissociation. Usually kon stands for the second-order rate constant of association. Broadly, the EC50 is the concentration giving half of the maximal effect.

B1: 1789 Fab (Fab, V domains shown)
VH: EVQLVESGGGLVQPGGSLRLSCAASGFNVSYSSIHWVRQAPGKGLEWVASISSSSGYTYYADSVKGRFTISADTSKNTAYLQMNSLRAEDTAVYYCARNYWGWYPFYYFAFDYWGQGTLVTV
VL: DIQMTQSPSSLSASVGDRVTITCRASQSVSSAVAWYQQKPGKAPKLLIYSASSLYSGVPSRFSGSRSGTDFTLTISSLQPEDFATYYCQQGWDYPITFGQGTKVEIKR
As for B1, in experiment [1], the Kd was 160 nM, the koff was found to be 0.014 s⁻¹ and the kon came out at 85000 M⁻¹ s⁻¹. Moreover, in experiment [2], the Kd is 760 nM, the koff was 0.044 s⁻¹ and the on-rate (kon) was 57000 M⁻¹ s⁻¹.

B2: 1789 IgG (antibody, V domains shown)
VH: EVQLVESGGGLVQPGGSLRLSCAASGFNVSYSSIHWVRQAPGKGLEWVASISSSSGYTYYADSVKGRFTISADTSKNTAYLQMNSLRAEDTAVYYCARNYWGWYPFYYFAFDYWGQGTLVTVSS
VL: DIQMTQSPSSLSASVGDRVTITCRASQSVSSAVAWYQQKPGKAPKLLIYSASSLYSGVPSRFSGSRSGTDFTLTISSLQPEDFATYYCQQGWDYPITFGQGTKVEIKR
In turn, B2 displayed an EC50 in experiment [3] of 37 nM.
